Experimental data taken from ChEMBL document CHEMBL2074524, “Delineating the contribution of secretory transporters in the efflux of etoposide using Madin-Darby canine kidney (MDCK) cells overexpressing P-glycoprotein (Pgp), multidrug resistance-associated protein (MRP1), and canalicular multispecific organic anion transporter (cMOAT)” (Drug Metab Dispos, 2002).

Columns and labels:
[1] = biological target: Multidrug resistance-associated protein 1 (Homo sapiens, UniProt P33527); assay: TP_TRANSPORTER: transepithelial transport (basal to apical) in MRP1-expressing MDCKII cells; type: functional, cell-based; settings: dog, mdck-ii
[2] = system: COc1cc([C@@H]2c3cc4c(cc3[C@@H](O[C@@H]3O[C@@H]5CO[C@@H](C)O[C@H]5[C@H](O)[C@H]3O)[C@H]3COC(=O)[C@H]23)OCO4)cc(OC)c1O; assay: TP_TRANSPORTER: transepithelial transport (basal to apical) in MDR1-expressing MDCKII cells; type: functional, cell-based, MDCK-II
[3] = substrate: COc1cc([C@@H]2c3cc4c(cc3[C@@H](O[C@@H]3O[C@@H]5CO[C@@H](C)O[C@H]5[C@H](O)[C@H]3O)[C@H]3COC(=O)[C@H]23)OCO4)cc(OC)c1O; assay: TP_TRANSPORTER: transepithelial transport (basal to apical) in MRP2-expressing MDCKII cells; type: functional, cell-based, MDCK-II

Multidrug resistance-associated protein 1, sequence (P33527 whole entry): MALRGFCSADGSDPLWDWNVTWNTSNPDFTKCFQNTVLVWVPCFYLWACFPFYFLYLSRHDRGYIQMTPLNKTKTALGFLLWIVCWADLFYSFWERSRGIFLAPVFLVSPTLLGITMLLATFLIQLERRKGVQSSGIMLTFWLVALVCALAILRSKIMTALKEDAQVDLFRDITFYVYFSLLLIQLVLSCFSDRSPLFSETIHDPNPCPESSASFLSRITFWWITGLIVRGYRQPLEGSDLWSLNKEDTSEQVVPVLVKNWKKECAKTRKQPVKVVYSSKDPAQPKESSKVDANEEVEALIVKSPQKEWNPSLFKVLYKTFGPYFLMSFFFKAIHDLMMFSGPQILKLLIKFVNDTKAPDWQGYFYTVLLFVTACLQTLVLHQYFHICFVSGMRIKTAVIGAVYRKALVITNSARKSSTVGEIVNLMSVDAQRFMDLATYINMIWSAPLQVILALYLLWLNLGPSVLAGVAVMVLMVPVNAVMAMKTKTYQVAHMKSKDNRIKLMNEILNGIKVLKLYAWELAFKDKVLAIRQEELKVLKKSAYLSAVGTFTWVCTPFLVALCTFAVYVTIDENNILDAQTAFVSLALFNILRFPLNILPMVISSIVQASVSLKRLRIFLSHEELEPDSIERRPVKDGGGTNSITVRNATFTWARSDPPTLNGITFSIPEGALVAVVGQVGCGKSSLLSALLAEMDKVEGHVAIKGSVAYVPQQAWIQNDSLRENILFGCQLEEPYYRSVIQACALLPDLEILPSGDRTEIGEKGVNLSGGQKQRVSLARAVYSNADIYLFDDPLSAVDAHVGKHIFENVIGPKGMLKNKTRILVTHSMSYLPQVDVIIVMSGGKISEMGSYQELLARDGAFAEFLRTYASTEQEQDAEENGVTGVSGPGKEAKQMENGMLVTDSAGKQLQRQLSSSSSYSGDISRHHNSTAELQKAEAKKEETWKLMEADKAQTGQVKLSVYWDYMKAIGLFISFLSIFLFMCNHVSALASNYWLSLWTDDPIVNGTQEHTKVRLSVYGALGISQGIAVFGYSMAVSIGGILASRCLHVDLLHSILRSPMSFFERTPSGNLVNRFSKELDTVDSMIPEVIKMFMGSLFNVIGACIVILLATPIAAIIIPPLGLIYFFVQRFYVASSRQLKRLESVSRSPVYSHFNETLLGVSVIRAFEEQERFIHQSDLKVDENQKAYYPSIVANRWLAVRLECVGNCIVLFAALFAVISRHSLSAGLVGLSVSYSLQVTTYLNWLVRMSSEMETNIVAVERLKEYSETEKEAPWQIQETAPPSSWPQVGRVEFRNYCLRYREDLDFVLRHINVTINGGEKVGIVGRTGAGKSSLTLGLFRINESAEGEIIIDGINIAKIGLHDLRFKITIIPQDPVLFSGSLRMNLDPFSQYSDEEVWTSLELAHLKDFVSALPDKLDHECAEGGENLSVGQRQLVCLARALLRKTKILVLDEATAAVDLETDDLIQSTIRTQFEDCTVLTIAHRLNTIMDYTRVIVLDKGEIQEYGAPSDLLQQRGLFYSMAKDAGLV

COc1cc([C@@H]2c3cc4c(cc3[C@@H](O[C@@H]3O[C@@H]5CO[C@@H](C)O[C@H]5[C@H](O)[C@H]3O)[C@H]3COC(=O)[C@H]23)OCO4)cc(OC)c1O [ETOPOSIDE]
Activity [1]: is not a substrate [-]

ATP-dependent translocase ABCB1 (Homo sapiens)
Km [2]: 255 µM

B1: ATP-binding cassette sub-family C member 2 (Homo sapiens) (protein)
chain: MLEKFCNSTFWNSSFLDSPEADLPLCFEQTVLVWIPLGYLWLLAPWQLLHVYKSRTKRSSTTKLYLAKQVFVGFLLILAAIELALVLTEDSGQATVPAVRYTNPSLYLGTWLLVLLIQYSRQWCVQKNSWFLSLFWILSILCGTFQFQTLIRTLLQGDNSNLAYSCLFFISYGFQILILIFSAFSENNESSNNPSSIASFLSSITYSWYDSIILKGYKRPLTLEDVWEVDEEMKTKTLVSKFETHMKRELQKARRALQRRQEKSSQQNSGARLPGLNKNQSQSQDALVLEDVEKKKKKSGTKKDVPKSWLMKALFKTFYMVLLKSFLLKLVNDIFTFVSPQLLKLLISFASDRDTYLWIGYLCAILLFTAALIQSFCLQCYFQLCFKLGVKVRTAIMASVYKKALTLSNLARKEYTVGETVNLMSVDAQKLMDVTNFMHMLWSSVLQIVLSIFFLWRELGPSVLAGVGVMVLVIPINAILSTKSKTIQVKNMKNKDKRLKIMNEILSGIKILKYFAWEPSFRDQVQNLRKKELKNLLAFSQLQCVVIFVFQLTPVLVSVVTFSVYVLVDSNNILDAQKAFTSITLFNILRFPLSMLPMMISSMLQASVSTERLEKYLGGDDLDTSAIRHDCNFDKAMQFSEASFTWEHDSEATVRDVNLDIMAGQLVAVIGPVGSGKSSLISAMLGEMENVHGHITIKGTTAYVPQQSWIQNGTIKDNILFGTEFNEKRYQQVLEACALLPDLEMLPGGDLAEIGEKGINLSGGQKQRISLARATYQNLDIYLLDDPLSAVDAHVGKHIFNKVLGPNGLLKGKTRLLVTHSMHFLPQVDEIVVLGNGTIVEKGSYSALLAKKGEFAKNLKTFLRHTGPEEEATVHDGSEEEDDDYGLISSVEEIPEDAASITMRRENSFRRTLSRSSRSNGRHLKSLRNSLKTRNVNSLKEDEELVKGQKLIKKEFIETGKVKFSIYLEYLQAIGLFSIFFIILAFVMNSVAFIGSNLWLSAWTSDSKIFNSTDYPASQRDMRVGVYGALGLAQGIFVFIAHFWSAFGFVHASNILHKQLLNNILRAPMRFFDTTPTGRIVNRFAGDISTVDDTLPQSLRSWITCFLGIISTLVMICMATPVFTIIVIPLGIIYVSVQMFYVSTSRQLRRLDSVTRSPIYSHFSETVSGLPVIRAFEHQQRFLKHNEVRIDTNQKCVFSWITSNRWLAIRLELVGNLTVFFSALMMVIYRDTLSGDTVGFVLSNALNITQTLNWLVRMTSEIETNIVAVERITEYTKVENEAPWVTDKRPPPDWPSKGKIQFNNYQVRYRPELDLVLRGITCDIGSMEKIGVVGRTGAGKSSLTNCLFRILEAAGGQIIIDGVDIASIGLHDLREKLTIIPQDPILFSGSLRMNLDPFNNYSDEEIWKALELAHLKSFVASLQLGLSHEVTEAGGNLSIGQRQLLCLGRALLRKSKILVLDEATAAVDLETDNLIQTTIQNEFAHCTVITIAHRLHTIMDSDKVMVLDNGKIIECGSPEELLQIPGPFYFMAKEAGIENVNSTKF
Km [3]: 617 µM
